This note sets out measurements from PMC12635182.

The assay addresses aSyn-VC (alpha-synuclein fused in front of the C-terminal fragment of Venus) (UniProt P37840).

On to “VN-Sph1 K527A (from UniProt Q9Y6H5 1-919) (natural protein)”, for which the cells with fewer VN-Sph1 + aSyn-VC inclusions than with WT Sph1 (HEK 293, counted by microscopy) amounted to 40%.
